The text below walks through data of patent publication US20180155451A1 (published 2018).

The target in the assay is T1, FcγRIa (human, UniProt P12314 16-292).
T1 construct: extracellular domain; also called FcgRI; CD64
Description: SPR; vs GpH7-A5/GpH7-B3/GpL16-k0=100. (In SPR one partner is held on a chip, and binding of the other changes the refractive index at the surface.)

T1 sequence (P12314 16-292): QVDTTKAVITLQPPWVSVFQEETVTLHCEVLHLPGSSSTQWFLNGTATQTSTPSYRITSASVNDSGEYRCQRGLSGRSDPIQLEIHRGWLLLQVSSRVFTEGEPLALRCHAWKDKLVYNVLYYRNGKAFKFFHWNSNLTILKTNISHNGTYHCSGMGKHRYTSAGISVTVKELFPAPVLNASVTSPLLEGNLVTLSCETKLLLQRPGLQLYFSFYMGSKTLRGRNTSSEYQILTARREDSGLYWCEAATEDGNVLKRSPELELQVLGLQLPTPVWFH

B1: GpH7-A5/GpH7-B3 variant A327_13S/GpL16-k0 (antibody, human IgG1, kappa)
heavy 1: not shown
heavy 2: not shown
light: DIVMTQSPLSLPVTPGEPASISCQASESLVHSNRNTYLHWYLQKPGQSPQLLIYKVSNRFSGVPDRFSGSGSGTDFTLKISRVEAEDVGVYYCSQNTHVPPTFGQGTKVEIERTVAAPSVFIFPPSDEQLKSGTASVVCLLNNFYPREAKVQWKVDNALQSGNSQESVTEQDSKDSTYSLSSTLTLSKADYEKHKVYACEVTHQGLSSPVTKSFNRGEC
notes: heterodimerized; also called He Ab A327_13S
For B1, the He/Con_1a was 102 % of control.

B2: GpH7-A5/GpH7-B3 variant E269_02A/GpL16-k0 (antibody, human IgG1, kappa)
heavy 1: not shown
heavy 2: not shown
light: B1 light
notes: heterodimerized; also called He Ab E269_02A
As to B2, the He/Con_1a was 104 % of control.

B3: GpH7-A5/GpH7-B3 variant I336_06M/GpL16-k0 (antibody, human IgG1, kappa)
heavy 1: not shown
heavy 2: not shown
light: B1 light
notes: heterodimerized; also called He Ab I336_06M
Consider B3, for which the He/Con_1a was 108 % of control.

B4: GpH7-A5/GpH7-B3 variant A330_05P/GpL16-k0 (antibody, human IgG1, kappa)
heavy 1: not shown
heavy 2: not shown
light: B1 light
notes: heterodimerized; also called He Ab A330_05P
With B4, the He/Con_1a is 101 % of control.

B5: GpH7-A5/GpH7-B3 variant H268_05P/GpL16-k0 (antibody, human IgG1, kappa)
heavy 1: not shown
heavy 2: not shown
light: B1 light
notes: heterodimerized; also called He Ab H268_05P
For the molecule B5, the He/Con_1a was 109 % of control.

B6: GpH7-A5/GpH7-B3 variant I336_01G/GpL16-k0 (antibody, human IgG1, kappa)
heavy 1: not shown
heavy 2: not shown
light: B1 light
notes: heterodimerized; also called He Ab I336_01G
Regarding B6, the He/Con_1a is 109 % of control.

B7: GpH7-A5/GpH7-B3 variant E333_03V/GpL16-k0 (antibody, human IgG1, kappa)
heavy 1: not shown
heavy 2: not shown
light: B1 light
notes: heterodimerized; also called He Ab E333_03V
Take B7: the He/Con_1a was 105 % of control.

B8: GpH7-A5/GpH7-B3 variant E333_13S/GpL16-k0 (antibody, human IgG1, kappa)
heavy 1: not shown
heavy 2: not shown
light: B1 light
notes: heterodimerized; also called He Ab E333_13S
As for B8, the He/Con_1a is 103 % of control.

B9: GpH7-A5/GpH7-B3 variant A330_14T/GpL16-k0 (antibody, human IgG1, kappa)
heavy 1: not shown
heavy 2: not shown
light: B1 light
notes: heterodimerized; also called He Ab A330_14T
Regarding B9, the He/Con_1a was 105 % of control.

B10: GpH7-A5/GpH7-B3 variant E333_02A/GpL16-k0 (antibody, human IgG1, kappa)
heavy 1: not shown
heavy 2: not shown
light: B1 light
notes: heterodimerized; also called He Ab E333_02A
As for B10, the He/Con_1a is 103 % of control.

B11: GpH7-A5/GpH7-B3 variant E269_03V/GpL16-k0 (antibody, human IgG1, kappa)
heavy 1: not shown
heavy 2: not shown
light: B1 light
notes: heterodimerized; also called He Ab E269_03V
Take B11: the He/Con_1a is 103 % of control.

B12: GpH7-A5/GpH7-B3 variant H268_20W/GpL16-k0 (antibody, human IgG1, kappa)
heavy 1: not shown
heavy 2: not shown
light: B1 light
notes: heterodimerized; also called He Ab H268_20W
In the case of B12, the He/Con_1a was 107 % of control.

B13: GpH7-A5/GpH7-B3 variant K326_14T/GpL16-k0 (antibody, human IgG1, kappa)
heavy 1: not shown
heavy 2: not shown
light: B1 light
notes: heterodimerized; also called He Ab K326_14T
Take B13: the He/Con_1a was 104 % of control.

B14: GpH7-A5/GpH7-B3 variant E333_15Y/GpL16-k0 (antibody, human IgG1, kappa)
heavy 1: not shown
heavy 2: not shown
light: B1 light
notes: heterodimerized; also called He Ab E333_15Y
With B14, the He/Con_1a is 101 % of control.

B15: GpH7-A5/GpH7-B3 variant E333_12R/GpL16-k0 (antibody, human IgG1, kappa)
heavy 1: not shown
heavy 2: not shown
light: B1 light
notes: heterodimerized; also called He Ab E333_12R
With B15, the He/Con_1a was 102 % of control.

B16: GpH7-A5/GpH7-B3 variant E269_08L/GpL16-k0 (antibody, human IgG1, kappa)
heavy 1: not shown
heavy 2: not shown
light: B1 light
notes: heterodimerized; also called He Ab E269_08L
On to B16, for which the He/Con_1a is 104 % of control.

B17: GpH7-A5/GpH7-B3 variant E333_06M/GpL16-k0 (antibody, human IgG1, kappa)
heavy 1: not shown
heavy 2: not shown
light: B1 light
notes: heterodimerized; also called He Ab E333_06M
B17: the He/Con_1a is 102 % of control.

B18: GpH7-A5/GpH7-B3 variant E269_19Q/GpL16-k0 (antibody, human IgG1, kappa)
heavy 1: not shown
heavy 2: not shown
light: B1 light
notes: heterodimerized; also called He Ab E269_19Q
For B18, the He/Con_1a is 105 % of control.

B19: GpH7-A5/GpH7-B3 variant K326_12R/GpL16-k0 (antibody, human IgG1, kappa)
heavy 1: not shown
heavy 2: not shown
light: B1 light
notes: heterodimerized; also called He Ab K326_12R
With B19, the He/Con_1a was 100 % of control.

B20: GpH7-A5/GpH7-B3 variant E333_14T/GpL16-k0 (antibody, human IgG1, kappa)
heavy 1: not shown
heavy 2: not shown
light: B1 light
notes: heterodimerized; also called He Ab E333_14T
Take B20: the He/Con_1a was 102 % of control.

B21: GpH7-A5/GpH7-B3 variant I336_18N/GpL16-k0 (antibody, human IgG1, kappa)
heavy 1: not shown
heavy 2: not shown
light: B1 light
notes: heterodimerized; also called He Ab I336_18N
For B21, the He/Con_1a was 108 % of control.

B22: GpH7-A5/GpH7-B3 variant I336_04F/GpL16-k0 (antibody, human IgG1, kappa)
heavy 1: not shown
heavy 2: not shown
light: B1 light
notes: heterodimerized; also called He Ab I336_04F
As to B22, the He/Con_1a is 106 % of control.

B23: GpH7-A5/GpH7-B3 variant E269_20W/GpL16-k0 (antibody, human IgG1, kappa)
heavy 1: not shown
heavy 2: not shown
light: B1 light
notes: heterodimerized; also called He Ab E269_20W
B23: the He/Con_1a is 105 % of control.

B24: GpH7-A5/GpH7-B3 variant E269_06M/GpL16-k0 (antibody, human IgG1, kappa)
heavy 1: not shown
heavy 2: not shown
light: B1 light
notes: heterodimerized; also called He Ab E269_06M
On to B24, for which the He/Con_1a was 104 % of control.

B25: GpH7-A5/GpH7-B3 variant A330_08L/GpL16-k0 (antibody, human IgG1, kappa)
heavy 1: not shown
heavy 2: not shown
light: B1 light
notes: heterodimerized; also called He Ab A330_08L; GpH7-A5/GpH7-B3-20-08L/GpL16-k0
In the case of B25, the He/Con_1a was 107 % of control.

B26: GpH7-A5/GpH7-B3 variant H268_07I/GpL16-k0 (antibody, human IgG1, kappa)
heavy 1: not shown
heavy 2: not shown
light: B1 light
notes: heterodimerized; also called He Ab H268_07I
Regarding B26, the He/Con_1a was 108 % of control.

B27: GpH7-A5/GpH7-B3 variant G236_20W/GpL16-k0 (antibody, human IgG1, kappa)
heavy 1: not shown
heavy 2: not shown
light: B1 light
notes: heterodimerized; also called He Ab G236_20W; GpH7-A5/GpH7-B3-03-20W/GpL16-k0
Take B27: the He/Con_1a is 105 % of control.

B28: GpH7-A5/GpH7-B3 variant E333_16H/GpL16-k0 (antibody, human IgG1, kappa)
heavy 1: not shown
heavy 2: not shown
light: B1 light
notes: heterodimerized; also called He Ab E333_16H
Turning to B28, the He/Con_1a was 101 % of control.
